Experimental data: US11707511B2, “Vaccine compositions and methods of using the same” (The Board of Supervisors of Louisiana State University and …, priority 2017, dated 2023)
“Also recorded” adds a separate entry of the source.

Columns and labels:
[1] = Induction of specific anti-peptide antibody responses in immunized mice; assay type: in vivo; settings: BALB/c mice; peptide-pulsed DC; data not shown
Source text: (§1) To perform rapid throughput evaluation of peptide vaccine candidates, immunizations were done by use of the similar antigen-pulsed DC based vaccine strategy with modification by totally removing CFA from vaccine formula. Fba peptide was used as positive control.
The double chimeric peptide conjugate vaccines have been tested for their abilities to induce specific anti-peptide antibodies and protective immunity against the disease caused by C. albicans. […] The enhancement in vaccine efficacy was evidenced by both increased survival and reduced or non-detectable fungal burden (colony forming units, CFUs) in kidneys of animals.

[2] = test system: medically important Candida spp; experiment: DC-based immunization with universal peptides, coverage of medically important Candida spp; assay type: in vivo; settings: in words
Source text: Novel universal peptides as described herein can be excellent peptide vaccines against C. ablicans infection.

C. albicans = experiment: Active immunization with peptide-pulsed dendritic cells, disseminated candidiasis caused by C. albicans in mice; assay type: in vivo, Candida albicans
Protocol: (§2) Active Immunizations with peptide pulsed dendritic cells. […] It allows us to perform rapid throughput evaluation of candidate short peptides. When protective double universal peptide conjugate(s) become identified by this study, immunization approaches suitable for human use will be applied in further studies. All active vaccinations were conducted as previously described (6,7,9). DCs were pulsed in vitro with universal peptide as described before with minor modification by totally removing CFA for last booster (6). Briefly, DCs in culture were pulsed with the peptide antigen (1 μM) on day 6. On day 7, PGE2 (10^-7M) was added along with LPS (2 μg/ml, Sigma) for 24 h to induce DC maturation. On day 9, antigen-pulsed DCs were washed extensively and […] in 200 μl DPBS were given by intraperitoneal (i.p.) route as the priming dose to mice. The mice were boosted i.p. at day 14 and day 28 with fresh antigen-pulsed DCs without adjuvant.
Table 2 lists universal peptide vaccines that induced protection against disseminated candidiasis caused by C. albicans in mice. The universal peptide vaccines listed in Table 1 are expressed at high homology by all analyzed medically important Candida species in addition to C. albicans (see details at Table 2). By dendritic cell (DC) based immunization approach as described herein, each of the universal peptide vaccines was able to protect mice against disseminated candidiasis caused by C. albicans, with the survival rate 80-100% up to 80-120 days post challenge.
as §1

[3] = test system: C. tropicalis (ATCC 20336); experiment: Peptide-vaccinated mice challenged with lethal dose of C. tropicalis; assay type: in vivo
Protocol: as §2
Peptide-vaccinated mice were challenged with lethal dose of live C. tropicalis cells (ATCC 20336; i.v. challenge dose: 1×10^6/mouse).

C. auris AR-0386 = experiment: Passive transfer of mAbs or two mAbs in combination in A/J mouse model of invasive C. auris infection; assay type: in vivo, Candida auris; settings: Table 19; A/J strain mice
Protocol: A. Complement protein C5-defecient A/J mice were treated with one of the five mAb or with DPBS as a vehicle control. The following day, mice were challenged with 1×10^8 C. auris cells/100 ul DPBS dose per mouse. […] B. Fungal burdens in the kidneys (top), heard (center), and brain (bottom).
Identified protective mAbs were obtained by use of standard hybridoma technique and purified by use of protein A/G. A/J mice were given an i.p. dose of either single mAb or two mAbs in combination 24 hours before hematogensous challenge with a lethal dose (2×108) of C. auris AR-0386 live cells. Mice received either 9G2F5 alone or 6H1G8 alone or 9F2G5 and 3H7E3 in combination had 40% survival rate respectively, with prolonged survival as compared to control animals that received DPBS buffer control.
Evaluation and validation of a panel of peptide-specific monoclonal antibodies (mAbs) as a passive immunization strategy protect against invasive C. auris infection in established A/J mouse model of human disease.
The monoclonal antibodies used in this experiment were: • 6H1G8 (IgG2b), α-Hwp1 (Hyphal wall protein) • 3E2G2 (IgG2b), α-Fba (Fructose bisphosphate aldolase) • 10E7E2 (IgG1), α-GPV-P3 (General peptide vaccine 3 from Phosphoglycerate kinase) • 9F2G5 (IgG2a), α-Pgk1 (Phosphoglycerate kinase) • 3H7E3 (IgG1), α-Met6 (Methyltetrahydropteroyltriglutamate)

C. albicans 3153A = experiment: Passive transfer of mAbs or mAb cocktails i.p. before lethal i.v. challenge, mouse model of human disseminated candidiasis; assay type: in vivo, Candida albicans; settings: Table 14; for Protection of adsorbed mAb: mAb removed by absorption with Candida cells before transfer; for Protection / Protection (grade word): single mAb, C. albicans
Protocol: Passive transfer of MAbs by intraperitoneal (i.p.) route. The preventive effect of peptide-specific mAbs listed in Table 3 and Table 4 in naïve mice was examined by passive transfer experiments. […] For testing, mice received 0.5 ml of each mAb or 1 ml of two mAbs in combination (0.5 ml of each) intraperitoneally. […] The negative control materials tested in mice were single mAb or DPBS. Control mice received 0.5 ml of the DPBS diluents or single mAb treatment. For each condition, 6- to 8-week-old female BALB/c mice (NCI) were given 0.5 ml of test mAb, or 1 ml two mAb cocktails or control materials intraperitoneally, followed 4 h later by 0.1 ml intravenously of defined lethal dose of yeast cells per milliliter of DPBS. Mice were divided into groups with five mice each and three independent experiments were carried out. In some experiments, mice were given the same dose of mAbs or control materials on every other day post-challenge for two weeks, as compared to the protective efficacy of mAb in combinations. All mice were sacrificed on day 50. For animal groups that were challenged non-albicans candida species, determined optimal challenge doses were applied for each candida strain.
The hybridoma clones that produce the universal peptide specific mAbs listed above were generated from mice vaccinated with peptide-pulsed dendritic cell (DC) preparation as described previously (6). The isotype of mAb was determined with a Mouse Monoclonal Antibody Isotyping Kit (Pierce, USA). […] In detail, BALB/c mice were given an i.p dose of each mAb four hours before hematogenous challenged with a lethal dose of C. albicans3153A cells. […] Importantly, passive protection was prevented by removal of the mAbs by absorption with Candida cells before transfer, which provided strong additional evidence for the protection being due to the mAb.
The three cell wall proteins were selected because of expression during human candidiasis and cell wall association, and included fructose-bisphosphate aldolase (Fba); methyltetrahydropteroyltriglutamate-homocysteine methyltransferase (Met6); hyphal wall protein-1 (Hwp1). The hybridoma clones listed at Table 5, which produce the peptide specific mAbs, were generated from mice vaccinated with peptide-pulsed dendritic cell (DC) preparation as described previously (6). The isotype of mAb was determined with a Mouse Monoclonal Antibody Isotyping Kit (Pierce, USA). […] Importantly, passive protection was prevented by removal of the mAbs by absorption with Candida cells before transfer, which provided strong additional evidence for the protection being due to the mAb).
The preventive effect of each universal peptide-specific mAb was examined by passive transfer experiments. […] For testing, 5 mice of each tested group received 0.5 ml of each mAb intraperitoneally. The negative control materials tested in mice were mAbs absorbed with C. albicans yeast cells (3153A) and DPBS. Control mice received 0.5 ml of the DPBS diluents or adsorbed mAb solution. For each condition, 6- to 8-week-old female BALB/c mice (NCI) were given 0.5 ml of test mAb, or control materials intraperitoneally, followed 4 h later by 0.1 ml intravenously of a suspension containing lethal dose of Candida cells per milliliter of DPBS. Mice were divided into groups with five mice each and three independent experiments were carried out. We have developed neutropenic murine models of disseminated infection by C. glabrata, C. tropicalis and C. parapsilosis. To induce neutropenia, naïve mice received a 200 mg/kg dose of cyclophosphamide (CY) by i.p. on day −3. Prolonged neutropenia were maintained for 30-50 days by giving each animal a 150 mg/kg dose of CY by i.p. every 10 days after infection.

C. auris = experiment: Passive transfer of mAbs in cyclophosphamide-immunosuppressed B6.129X1Elane mice, disseminated infection by C. auris; assay type: in vivo, Candida auris; settings: 2×108 C. auris i.v.
Protocol: An immunocompromised murine model of disseminated infection by C. auris was developed. To induce immunosuppression, Jackson B6.129X1Elane mice received a 200 mg/kg dose of cyclophosphamide (CY) by i.p. on day −3. Prolonged immunosuppression was maintained for 30 days by giving each animal a 200 mg/kg dose of CY by i.p. every 10 days after infection. On day 0, mice of different experimental groups were intravenously infected with 2×10^8 viable C. auris yeast cells.
The preventive effect of peptide-specific mAbs, for example 7H6A2 and 1D4H5, and combinations thereof, for example 7H6A2+1D4H5, was examined by passive transfer experiments. Each mAb was appropriately diluted in DPBS to give a 40,000-100,000 ELISA titer against each corresponding specific peptide coated on the plate. For testing, mice received 0.5 ml of each mAb or 1 ml of two mAbs in combination (0.5 ml of each) intraperitoneally. Control mice received 0.5 ml of the DPBS diluents.
Protective mAbs protect immunocompromised mice against disseminated infection by Candida auris: The possibility of using passive mAb immunotherapy in immunocompromised mice against disseminated candidiasis by C. auris. The protective effect of mAb 7H6A2, 1D4H5 or these two mAbs in combination against the disease in immunocompromised mice was examined by passive transfer experiments (FIG. 14). Mice received either mAb 7H6A2 or 1D4H5 or the two mAbs in combination had reduced CFUs in kidneys (FIG. 14A) and in brains (FIG. 14B) as compared with control mice.

With SSSTVVAAL [Fba4] the specific antibody responses [1] was “able to induce specific antibody responses”.

For “IVIIGGGDTATVAKK (CIVIIGGGDTATVAKK; (1)..(1) May or may not be present) [GPV-P3]”, the “coverage against medically important Candida spp” value (“coverage” for short) [2] was “able to provide broad coverage”.

With PAINVTSSSTVVAALEAA [FbaU2] the specific antibody responses [1] was “able to induce specific antibody responses”.

With “TTTIGSFPQTKDIR (CTTTIGSFPQTKDIR; (1)..(1) May or may not be present) [GPV-M2]” the “coverage” value [2] was “able to provide broad coverage”.

With AILGGSKVSDKI (CAILGGSKVSDKI) [GPV-P1] the “coverage” value [2] was “able to provide broad coverage”.

For “FWVNPDCGLKTR (CFWVNPDCGLKTR; (1)..(1) May or may not be present) [GPV-M1]”, the “coverage” value [2] was “able to provide broad coverage”.

For FAIPAINVTSSSTVVAALE [Fba3], the “protection against disseminated candidiasis caused by C. albicans” value (C. albicans; FIG. 2, antigen-pulsed DC vaccine without CFA) was “good protective responses”, the “CFUs in kidneys as compared to controls” value (C. albicans; FIG. 2 B and D) was “reduced or non-detectable CFUs” and the specific antibody responses [1] was “able to induce specific antibody responses”. The survival ([3]; FIG. 3A, i.v. challenge 1×10^6/mouse, up to 80 days) was 80% and the “live fungal cells (CFU) in kidneys as compared to controls” value ([3]; FIG. 3B, p<0.001) was “significantly reduced live fungal cells”.

B1: 2B10C1: IgG1 mAb of hybridoma 2B10C1, specific for Met6 peptide; VH SEQ ID NO: 60, VL SEQ ID NO: 62 (antibody, V domains shown)
VH: MGWSYIILFLLATATRVHSQVQLQQPGAEVVRPGASVKVSCKASGYTVSSYWMSWVKQRPEQGLEWIGRIDPYDSETHYNQKFKDKAILTVDKSSSTAYMQLSSLTSEDSAVYYCARTAASFDYWGQGTTLTVSS
VL: MKLPVRLLVLMFWIPASSSDVVMTQTPLSLPVSLGDQASISCRSSQSLVHSNGNSYLHWYLQKPGQSPKLLIYKVSNRFSGVPDRFSGSGSGTDFTLNISRVEAEDLGVYFCSQSTHVPFTFGSGTKLEIK
With B1 the “Protection against C. auris” value (C. auris AR-0386) was 60-90%, the “Protection against C. auris (grade word)” value (C. auris AR-0386) was “High” and the “Protection of adsorbed mAb” value (C. albicans 3153A) was “None”. For the same molecule, the Protection (C. albicans 3153A) was “(80-100%)” and the “Protection (grade word)” value (C. albicans 3153A) was “High”.

B2: 7H6A2: IgG2b mAb of hybridoma 7H6A2, specific for Met6 peptide (antibody)
heavy: QIQLVQSGPELKKPGETVKISCKASGYTFTDFSMHWVKQAPGKGLKWMGWINTETVEPTYADDFKGRFAFSLETSASTAYLQINNLKNEDTATYFCSRVSYDGYYGDFAMDYWSQGTSVTVSSAKTTAPSVYPLAPVCGDTTGSSVTLGCLVKGYFPEPVTLTWNSGSLSSGVHTFPAVLQSDLYTLSSSVTVTSSTWPSQSITCNVAHPASSTKVDKKIEPRGPTIKPCPPCKCPAPNLLGGPSVFIFPPKIKDVLMISLSPIVTCVVVDVSEDDPDVQISWFVNNVEVHTAQTQTHREDYNSTLRVVSALPIQHQDWMSGKEFKCKVNNKDLPAPIERTISKPKGSVRAPQVYVLPPPEEEMTKKQVTLTCMVTDFMPEDIYVEWTNNGKTELNYKNTEPVLDSDGSYFMYSKLRVEKKNWVERNSYSCSVVHEGLHNHHTTKSFSRTPGK
light: DIQMTQTTSSLSASLGDRVTISCRASQDISNYLNWYQQKPDGTVKLLIYYTSRLHSGVPSRFSGSGSGTDYSLTISNLEQEDIATYFCQQGNTLPWTFGGGTKLEIKRADAAPTVSIFPPSSEQLTSGGASVVCFLNNFYPKDINVKWKIDGSERQNGVLNSWTDQDSKDSTYSMSSTLTLTKDEYERHNSYTCEATHKTSTSPIVKSFNRNEC
For B2, the “CFUs in kidneys as compared with control mice” value (C. auris; FIG. 14A) was “reduced CFUs”, the “CFUs in brains as compared with control mice” value (C. auris; FIG. 14B) was “reduced CFUs; also recorded: no CFU detected” and the “Protection against C. auris” value (C. auris AR-0386) was 80-100%. The “Protection against C. auris (grade word)” value (C. auris AR-0386) was “High”, the “Protection of adsorbed mAb” value (C. albicans 3153A) was “None” and the Protection (C. albicans 3153A) was “(80-90%)”. The “Protection (grade word)” value (C. albicans 3153A) was “High”.
